Results: US20190031748A1

B1: CA11 Fab (Fab, V domains shown)
VH: EVQLQQSGPELVKPGASVKMSCKASGYTFTRSVMHWVKQKPGQGLEWIGYINPYNDGTKYNEKFKGKATLTSDKSSSTAYMELSSLTSEDSAVYYCAKSGNDGYWGQGTTLTVSS
VL: EIVLTQSPTTMAASPGEKITITCSASSSISSIYLHWYQQKPGFSPKVLIYRAKNLASGVPARFSGSGSGTSYSLTIGTMEAEDVATYYCQQGSTIPFTFGSGTKLEIK
B2: CA11 antibody (mouse IgG1/kappa) (antibody, V domains shown)
VH: B1 VH
VL: EIVLTQSPTTMAASPGEKITITCSASSSISSIYLHWYQQKPGFSPKVLIYRAKNLASGVPARFSGSGSGTSYSLTIGTMEAEDVATYYCQQGSTIPFTFGSGTKLEIKR

Key:
[1] = target: N-terminal biotin labelled human CGRP (Abgent Custom Synthesized Peptide #355061532) (human) (UniProt P06881); experiment: ELISA; Fab captured on anti-human kappa; N-terminal biotin CGRP at 20 nM; 2 h dissociation step; neutravidin-AP detection
[2] = target: N-terminal biotin labelled human CGRP (Abgent Custom Synthesized Peptide #355061532) (human) (UniProt P06881); experiment: ELISA; Fab captured on anti-human kappa; N-terminal biotin CGRP at 0.247 nM; 2 h dissociation step; neutravidin-AP detection
[3] = target: N-terminal biotin labelled human CGRP (Abgent Custom Synthesized Peptide #355061532) (human) (UniProt P06881); experiment: ELISA; Fab captured on anti-human kappa; N-terminal biotin CGRP at 2.222 nM; 2 h dissociation step; neutravidin-AP detection
[4] = target: N-terminal biotin labelled human CGRP (Abgent Custom Synthesized Peptide #355061532) (human) (UniProt P06881); experiment: ELISA; Fab captured on anti-human kappa; N-terminal biotin CGRP at 0.082 nM; 2 h dissociation step; neutravidin-AP detection
[5] = target: N-terminal biotin labelled human CGRP (Abgent Custom Synthesized Peptide #355061532) (human) (UniProt P06881); experiment: ELISA; Fab captured on anti-human kappa; N-terminal biotin CGRP at 6.667 nM; 2 h dissociation step; neutravidin-AP detection
[6] = target: N-terminal biotin labelled human CGRP (Abgent Custom Synthesized Peptide #355061532) (human) (UniProt P06881); experiment: ELISA; Fab captured on anti-human kappa; N-terminal biotin CGRP at 0.741 nM; 2 h dissociation step; neutravidin-AP detection
[7] = target: N-terminal biotin labelled human CGRP (Abgent Custom Synthesized Peptide #355061532) (human) (UniProt P06881); experiment: ELISA; Fab captured on anti-human kappa; N-terminal biotin CGRP at 0.009 nM; 2 h dissociation step; neutravidin-AP detection
[8] = target: N-terminal biotin labelled human CGRP (Abgent Custom Synthesized Peptide #355061532) (human) (UniProt P06881); experiment: ELISA; Fab captured on anti-human kappa; N-terminal biotin CGRP at 0.027 nM; 2 h dissociation step; neutravidin-AP detection
human CGRP (human) [9] = target: human CGRP (human) (UniProt P06881); experiment: Quanterix Simoa sandwich assay; Antibody II beads capture, biotinylated CA11 detection; CGRP at 5.56 pg/mL
human CGRP (human) [10] = target: human CGRP (human) (UniProt P06881); experiment: Quanterix Simoa sandwich assay; Antibody II beads capture, biotinylated CA11 detection; CGRP at 1.85 pg/mL
human CGRP (human) [11] = target: human CGRP (human) (UniProt P06881); experiment: Quanterix Simoa sandwich assay; Antibody II beads capture, biotinylated CA11 detection; CGRP at 0.0076 pg/mL
human CGRP (human) [12] = target: human CGRP (human) (UniProt P06881); experiment: Quanterix Simoa sandwich assay; Antibody II beads capture, biotinylated CA11 detection; CGRP at 0.07 pg/mL
human CGRP (human) [13] = target: human CGRP (human) (UniProt P06881); experiment: Quanterix Simoa sandwich assay; Antibody II beads capture, biotinylated CA11 detection; CGRP at 0.02 pg/mL
human CGRP (human) [14] = target: human CGRP (human) (UniProt P06881); experiment: Quanterix Simoa sandwich assay; Antibody II beads capture, biotinylated CA11 detection; CGRP at 0.21 pg/mL
human CGRP (human) [15] = target: human CGRP (human) (UniProt P06881); experiment: Quanterix Simoa sandwich assay; Antibody II beads capture, biotinylated CA11 detection; CGRP at 16.67 pg/mL
human CGRP (human) [16] = target: human CGRP (human) (UniProt P06881); experiment: Quanterix Simoa sandwich assay; Antibody II beads capture, biotinylated CA11 detection; CGRP at 0.62 pg/mL
human CGRP (human) [17] = target: human CGRP (human) (UniProt P06881); experiment: Quanterix Simoa sandwich assay; Antibody II beads capture, biotinylated CA11 detection; CGRP at 50 pg/mL

A560 [1] | A560 [2] | A560 [3] | A560 [4] | A560 [5] | A560 [6] | A560 [7] | A560 [8] | Average AEB (AEB (average enzyme per bead)) (human CGRP (human) [9]) | Average AEB (AEB (average enzyme per bead)) (human CGRP (human) [10]) | Average AEB (AEB (average enzyme per bead)) (human CGRP (human) [11]) | Average AEB (AEB (average enzyme per bead)) (human CGRP (human) [12]) | Average AEB (AEB (average enzyme per bead)) (human CGRP (human) [13]) | Average AEB (AEB (average enzyme per bead)) (human CGRP (human) [14]) | Average AEB (AEB (average enzyme per bead)) (human CGRP (human) [15]) | Average AEB (AEB (average enzyme per bead)) (human CGRP (human) [16]) | Average AEB (AEB (average enzyme per bead)) (human CGRP (human) [17]) | Binder
1.05 A560 | 0.165 A560 | 0.688 A560 | 0.091 A560 | 1.03 A560 | 0.356 A560 | 0.082 A560 | 0.063 A560 | – | – | – | – | – | – | – | – | – | B1
– | – | – | – | – | – | – | – | 0.42 | 0.13 | 0.0079 | 0.011 | 0.0075 | 0.02 | 1.18 | 0.06 | 2.99 | B2
